For one substance, Kd results are on record in PMC5772683.

This experiment addresses microtubules (MTs) assembled from bovine brain tubulin (bovine) (UniProt Q6B856). Description: co-sedimentation.

For orientation: Kd means the equilibrium constant for the complex coming apart. High values mean a looser complex, low ones a tighter complex. Consider “human Profilin-1 (PFN1), wildtype (from UniProt P07737 1-140) (natural protein)”, for which the Kd is 10.7 µM.
